Assay results as given in the supplement of paper PMC7877785.
± gives the uncertainty stated by the source.

Assay: self-splicing fitness, log relative to wild type (ln ratio); higher = more splicing; Tetrahymena group I intron in knt gene, E. coli kanamycin selection, DiMSum; sequences stand for … in CUCUCU…GGAGGGAAAAGUUAUCAGGCAUGCACCUGGUAGCUAGUCUUUAAACCAAUAGAUUGCAUCGGUUUAAAAGGCAAGACCGUCAAAUUGCGGGAAAGGGGUCAACAGCCGUUCAGUACCAAGUCUCAGGGGAAACUUUGAGAUGGCCUUGCAAAGGGUAUGGUAAUAAGCUGACGGACAUGGUCCUAACCACGCAGCCAAGUCCUAAGUCAACAGAUCUUCUGUUGAUAUGGAUGCAGUUCACAGACUAAAUGUCGGUCGGGGAAGAUGUAUUCUUCUCAUAAGAUAUAGUCGGACCUCUCCUUAAUGGGAGCUAGCGGAUGAAGUGAUGCAACACUGGAGCCGCUGGGAACUAAUUUGUAUGCGAAAGUAUAUUGAUUAGUUUUGGAGUACUCGUGGUCG
Procedure, shortened: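 Library with all eight P1ex-region intron nucleotides randomised, intron inside the knt kanamycin-resistance gene on pET-22b(+), in E. coli BL21(DE3). Cells grew overnight at 37°C or 30°C on LB agar with or without 25 μg/mL kanamycin (plus 100 μg/mL carbenicillin, 50 μM IPTG, 0.2% rhamnose), in six replicate transformations. Pooled colonies were amplicon-sequenced on Illumina HiSeq 2500. DiMSum fitness is the error-weighted combination of wild-type-normalised replicate fold changes, kanamycin versus none.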

Sequence	self-splicing fitness (ln) (30 °C)	self-splicing fitness (ln) (37 °C)
UCCAAGCAAUAUUACGAAGC	-2.87 ± 0.25	-1.93 ± 0.21
UGUAAGCAAUAUUACGCCCU	-0.237 ± 0.19	-0.575 ± 0.24
UGCAAGCAAUAUUACGUCCU	-0.656 ± 0.094	-0.908 ± 0.098
CAAGAGCAAUAUUACGCGGG	-2.7 ± 0.25	-2.89 ± 0.34
CCCGAGCAAUAUUACGCUGG	-3.13 ± 0.16	-2.68 ± 0.26
GAGUAGCAAUAUUACGCAGA	-3 ± 0.26	-2.41 ± 0.31
GUCUAGCAAUAUUACGGGAA	-1.24 ± 0.086	-0.758 ± 0.084
CUUGAGCAAUAUUACGGGUA	-3.78 ± 0.33	-2.53 ± 0.24
AUAAAGCAAUAUUACGGCAG	-0.699 ± 0.092	-0.0772 ± 0.13
UCUAAGCAAUAUUACGCAGA		-0.999 ± 0.21
CGGCAGCAAUAUUACGCUCC	-4.03 ± 0.39	-1.08 ± 0.25
CUCAAGCAAUAUUACGGAGU	-3.52 ± 0.17	-3.04 ± 0.18
GACGAGCAAUAUUACGCACC	-3.06 ± 0.15	-0.796 ± 0.12
ACACAGCAAUAUUACGAUUG	-2.22 ± 0.084	-0.711 ± 0.09
AGCCAGCAAUAUUACGCUAU	-1.55 ± 0.12	-0.833 ± 0.13
GAAUAGCAAUAUUACGUUAU	-2.79 ± 0.12	-1.65 ± 0.14
UGUUAGCAAUAUUACGACUU	-0.357 ± 0.11	0.12 ± 0.12
GCUCAGCAAUAUUACGGUGU	-1.3 ± 0.062	0.0463 ± 0.076
UAUCAGCAAUAUUACGGGGC	-2.85 ± 0.18	-2.59 ± 0.19
UAGAAGCAAUAUUACGAGUG	-0.527 ± 0.048	-0.505 ± 0.071
UGCAAGCAAUAUUACGCUGA	-2.78 ± 0.12	-0.102 ± 0.09
CCUUAGCAAUAUUACGGAUA	-2.98 ± 0.29	-1.92 ± 0.37
UAUAAGCAAUAUUACGCGGG	-2.17 ± 0.14	-1.89 ± 0.18
ACAUAGCAAUAUUACGCGGA	-2.07 ± 0.14	-0.505 ± 0.1
UCGGAGCAAUAUUACGACUA	-1.22 ± 0.37	-1.83 ± 0.38
AGACAGCAAUAUUACGUUGU	-3.02 ± 0.13	-2.21 ± 0.12
GUCUAGCAAUAUUACGCCAA		-0.981 ± 0.29

Sequence	self-splicing fitness (ln) (30 °C)	self-splicing fitness (ln) (37 °C)
UGCUAGCAAUAUUACGUAAG	-2.3 ± 0.19	-1.35 ± 0.18
CUAAAGCAAUAUUACGGCCA	-3.21 ± 0.31	-2.08 ± 0.4
AGAGAGCAAUAUUACGCGAA	-3.26 ± 0.37	-2.82 ± 0.34
UCGCAGCAAUAUUACGGCAC	-1.94 ± 0.34	-2.67 ± 0.29
GGCCAGCAAUAUUACGUUAG	-3.38 ± 0.26	-2.82 ± 0.34
AGAGAGCAAUAUUACGAAAA		-1.5 ± 0.5
GGGGAGCAAUAUUACGAACG		-1.11 ± 0.36
CGUAAGCAAUAUUACGAACU	-1.27 ± 0.083	-0.364 ± 0.074
CGGCAGCAAUAUUACGGCCC	-1.31 ± 0.27	0.163 ± 0.21
GACUAGCAAUAUUACGCUCC	-3.46 ± 0.47	
UGUUAGCAAUAUUACGCUUA	-1.73 ± 0.18	-0.323 ± 0.21
GAACAGCAAUAUUACGGGUG	-1.88 ± 0.072	-1.59 ± 0.092
ACCCAGCAAUAUUACGGGUC	-1.89 ± 0.085	-2.74 ± 0.19
CAAAAGCAAUAUUACGUAUC	-4.08 ± 0.21	-1.02 ± 0.15
CCUCAGCAAUAUUACGACCA	-2.93 ± 0.34	-1.99 ± 0.46
GAGUAGCAAUAUUACGACGC	-0.488 ± 0.12	0.137 ± 0.14
GUAAAGCAAUAUUACGCUAG	-1.03 ± 0.079	-0.533 ± 0.1
GGUAAGCAAUAUUACGCAGU	-1.51 ± 0.17	-1.55 ± 0.24
CGUCAGCAAUAUUACGGCUC	-1.43 ± 0.081	0.225 ± 0.088
CGGGAGCAAUAUUACGUCGA		-1.71 ± 0.48
UUCGAGCAAUAUUACGAUCA	-1.89 ± 0.2	-0.432 ± 0.14
UGUAAGCAAUAUUACGACAC	-2.51 ± 0.41	
UUUCAGCAAUAUUACGCGCC	-1.72 ± 0.24	-0.992 ± 0.37
UAAGAGCAAUAUUACGGGCU		-2.53 ± 0.32
ACAGAGCAAUAUUACGGUAC	-3.57 ± 0.2	-3.02 ± 0.25
GGGAAGCAAUAUUACGGAGG	-2.91 ± 0.41	-1.99 ± 0.35
CCUAAGCAAUAUUACGACUA	-2.87 ± 0.4	-1.59 ± 0.33

Sequence	self-splicing fitness (ln) (30 °C)	self-splicing fitness (ln) (37 °C)
ACCCAGCAAUAUUACGUCUU	-1.25 ± 0.063	-0.446 ± 0.075
CAGUAGCAAUAUUACGACCU	-0.458 ± 0.15	-0.391 ± 0.2
CACAAGCAAUAUUACGGCGG	-0.406 ± 0.042	-0.181 ± 0.052
CCGCAGCAAUAUUACGCAAG	-1.41 ± 0.095	-1.18 ± 0.13
AACCAGCAAUAUUACGGUAC	-2.82 ± 0.12	-1.1 ± 0.088
UUCGAGCAAUAUUACGCCAA	-2.89 ± 0.48	-2.07 ± 0.27
UGACAGCAAUAUUACGGUUA	-0.746 ± 0.073	-0.364 ± 0.065
CAAUAGCAAUAUUACGUCAA	-3.04 ± 0.22	-2.01 ± 0.28
CCCCAGCAAUAUUACGAGUG	-3.21 ± 0.12	-2.92 ± 0.14
UCCGAGCAAUAUUACGUGUA	-2.55 ± 0.086	-1.9 ± 0.082
AGGAAGCAAUAUUACGUACG	-1.15 ± 0.11	-0.064 ± 0.1
UCUUAGCAAUAUUACGGGAG	-2.63 ± 0.49	-2.41 ± 0.35
CUCCAGCAAUAUUACGCGAA	-3.06 ± 0.14	-1.77 ± 0.16
UGUUAGCAAUAUUACGGUCU	-1.33 ± 0.09	-0.963 ± 0.1
CAAGAGCAAUAUUACGUCCU	-3.32 ± 0.43	-2.24 ± 0.29
GCAAAGCAAUAUUACGCGCA	-0.918 ± 0.096	-0.0967 ± 0.092
ACGGAGCAAUAUUACGAUCU	-2.61 ± 0.14	-1.37 ± 0.11
CAAGAGCAAUAUUACGCCUA		-1.91 ± 0.43
AUUUAGCAAUAUUACGAACG	-0.287 ± 0.16	-0.464 ± 0.29
UGCUAGCAAUAUUACGUCAC	-3.62 ± 0.19	-2.74 ± 0.22
UUCAAGCAAUAUUACGAAAU	-3.5 ± 0.25	-1.43 ± 0.19
CCUGAGCAAUAUUACGGAAG	-2.82 ± 0.15	-1.29 ± 0.12
GUUUAGCAAUAUUACGCACC	-1.95 ± 0.19	-0.522 ± 0.26
UUAGAGCAAUAUUACGGCUC	-3.52 ± 0.35	-1.68 ± 0.28
GCCCAGCAAUAUUACGCCUC	-0.831 ± 0.075	0.0191 ± 0.11
